Results from PMC4303305 (Biochemistry, 2014).
Where two headings read alike, the source gives them in different places.

B1: NP1(K1A) (natural protein, Rhodnius prolixus, UniProt Q26239 24-207, looked up)
chain: ACTKNALAQTGFNKDKYFNGDVWYVTDYLDLEPDDVPKRYCAALAAGTASGKLKEALYHYDPKTQDTFYDVSELQEESPGKYTANFKKVEKNGNVKVDVTSGNYYTFTVMYADDSSALIHTCLHKGNKDLGDLYAVLNRNKDTNAGDKVKGAVTAASLKFSDFISTKDNKCEYDNVSLKSLLTK
B2: native N-terminal NP1 with C-terminal His6 tag (natural protein, Rhodnius prolixus, UniProt Q26239 24-207, looked up)
chain: KCTKNALAQTGFNKDKYFNGDVWYVTDYLDLEPDDVPKRYCAALAAGTASGKLKEALYHYDPKTQDTFYDVSELQEESPGKYTANFKKVEKNGNVKVDVTSGNYYTFTVMYADDSSALIHTCLHKGNKDLGDLYAVLNRNKDTNAGDKVKGAVTAASLKFSDFISTKDNKCEYDNVSLKSLLTK
B3: NP4(K38Q/R39Q/K125Q) (natural protein, Rhodnius prolixus, UniProt Q94734 22-205, looked up)
chain: ACTKNAIAQTGFNKDKYFNGDVWYVTDYLDLEPDDVPQQYCAALAAGTASGKLKEALYHYDPKTQDTFYDVSELQVESLGKYTANFKKVDKNGNVKVAVTAGNYYTFTVMYADDSSALIHTCLHQGNKDLGDLYAVLNRNKDAAAGDKVKSAVSAATLEFSKFISTKENNCAYDNDSLKSLLTK

Assays:
SEC [1] = biological target: the molecule itself; test: SEC
SEC [2] = biological target: the molecule itself; test: SEC; remark: listed apart in the source

Protein	stoichiometry N (SEC [1])	stoichiometry N (SEC [2])
B1	2	–
B2	2	–
B3	–	2
